{"source": "paper PMC6347194", "about": "“Protein refolding based on high hydrostatic pressure and alkaline pH: Application on a recombinant dengue virus NS1 protein” (PLoS ONE, 2019)", "proteins": {"B1": {"name": "dengue virus (DENV) non-structural protein 1 (NS1), recombinant, refolded from inclusion bodies (natural protein)", "chain": "DSGCVVSWKNKELKCGSGIFITDNVHTWTEQYKFQPESPSKLASAIQKAHEEGICGIRSVTRLENLMWKQITPELNHILSENEVKLTIMTGDIKGIMQAGKRSLQPQPTELKYSWKTWGKAKMLSTESHNQTFLIDGPETAECPNTNRAWNSLEVEDYGFGVFTTNIWLKLREKQDVFCDSKLMSAAIKDNRAVHADMGYWIESALNDTWKIEKASFIEVKSCHWPKSHTLWSNGVLESEMIIPKNFAGPVSQHNYRPGYHTQTAGPWHLGKLEMDFDFCEGTTVVVTEDCGNRGPSLRTTTASGKLITEWCCRSCTLPPLRYRGEDGCWYGMEIRPLKEKEENLVNSLVTA", "notes": "also called DENV NS1"}}, "key": {"[1]": {"target": "the molecule itself", "test": "SEC"}, "[2]": {"target": "the molecule itself", "test": "SEC; Superdex 200 10/300, elution in 50 mM CAPS pH 11.0; supernatant of NS1-IBs subjected to 2.4 kbar/0.4 kbar at pH 11.0, before dialysis"}}}
{"protein": "B1", "values": [{"measurement": "stoichiometry N", "setting": "[1]", "value": 3}, {"measurement": "stoichiometry N", "setting": "[2]", "value": 2}]}
